Measurements taken from US20250092151A1 (ALTRUBIO, published 2025).

T1: human P-selectin glycoprotein ligand-1 (PSGL-1), expressed on Sp2/0-hPSGL-1 cells (human, UniProt Q14242 42-412)
T1 sequence: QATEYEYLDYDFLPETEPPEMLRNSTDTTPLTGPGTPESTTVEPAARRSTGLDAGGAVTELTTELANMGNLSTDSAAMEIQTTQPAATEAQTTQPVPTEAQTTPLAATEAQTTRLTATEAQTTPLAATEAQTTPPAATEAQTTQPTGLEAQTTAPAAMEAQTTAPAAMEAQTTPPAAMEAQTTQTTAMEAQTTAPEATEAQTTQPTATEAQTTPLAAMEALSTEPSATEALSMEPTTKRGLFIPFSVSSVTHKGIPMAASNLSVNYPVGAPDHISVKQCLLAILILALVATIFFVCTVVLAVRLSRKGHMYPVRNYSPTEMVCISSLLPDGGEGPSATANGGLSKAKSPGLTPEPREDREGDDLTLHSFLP


Tests used:
[1] = molecular target: T1, human P-selectin glycoprotein ligand-1 …; assay: cell-based or functional assay
[2] = molecular target: T1, human P-selectin glycoprotein ligand-1 …; assay: flow cytometry on Sp2/0-hPSGL-1 cells, antibody at 1 µg/mL
Experimental: (§1) Sp2/0 cells transfected with human PSGL-1 (Sp2/0-hPSGL1) were used as the PSGL-1 expressing cell line. Sp2/0-hPSGL1 cells were centrifuged at 1200 rpm for 5 min. The cell pellets were resuspended in FACS buffer (PBS containing 1% FBS) and pipetted into 96 well plate (1×10⁵ cells/well). To each well was added 100 μl of supernatants containing humanized 15A7H (h15A7H)/tetravalent antibodies, and these were incubated for 60 min at 4° C. The cells were washed three times with cold FACS buffer and then incubated with 100 μl of Mouse Anti-Human IgG₄ pFc′-PE (SouthernBiotech Cat. no. 9190-09) at 1 μg/ml concentration for 60 min at 4° C. Subsequently, the cells were washed three times with cold FACS buffer and analyzed by FACS analysis. All flow cytometric analyses were performed on a BD-LSR flow cytometer (Becton Dickinson) using the Cell Quest software.
(§2) The binding ability of h15A7H tetravalent antibodies was evaluated in human PSGL-1 SP2/O cells. The h15A7H tetravalent antibody bound positively to the SP2/O-hPSGL-1, but not to parental SP2/O cell lacking of hPSGL-1 antigen (Table A below). Additionally, wild type h15A7H and all of h15A7H tetravalent antibodies gave similar binding activity on SP2/O-hPSGL-1 (Table A).

[3] = molecular target: T1, human P-selectin glycoprotein ligand-1 …; assay: flow cytometry on Sp2/0-hPSGL-1 cells, antibody at 3 µg/mL
Experimental: as §1, §2

[4] = molecular target: T1, human P-selectin glycoprotein ligand-1 …; assay: flow cytometry on Sp2/0-hPSGL-1 cells, antibody at 0.1 µg/mL
Experimental: as §1, §2

[5] = molecular target: T1, human P-selectin glycoprotein ligand-1 …; assay: flow cytometry on Sp2/0-hPSGL-1 cells, antibody at 0.3 µg/mL
Experimental: as §1, §2

Apoptosis % (background subtracted, n = 4), mean, at 0.0625 µg/mL, SP2/O-hPSGL-1 cells, Annexin V/PI [1] [%] | Apoptosis % (background subtracted, n = 4), mean, at 0.5 µg/mL, SP2/O-hPSGL-1 cells, Annexin V/PI [1] [%] | mean fluorescence intensity [2] [MFI] | mean fluorescence intensity [3] [MFI] | mean fluorescence intensity [4] [MFI] | mean fluorescence intensity [5] [MFI] | Binder
15.5 | 23.8 | 5740 | 4380 | 5540 | 7060 | h15A7H scFv2-LC-IgG4p (antibody, Tetravalent: a v2 scFv fused to the N-terminus of each kappa light chain of h15A7H IgG4p) light: EVQLVESGGGLVQPGGSLRLSCAASGFTFSSFGMHWVRQAPGKCLEWVAYINGGSSTIFYANAVKGRFTISRDNAKNTLYLQMNSLRAEDTAVYYCARYASYGGGAMDYWGQGTLVTVSSGGGGSGGGGSGGGGSGGGGSGGGGSDIQMTQSPSSLSASVGDRVTITCRSSQSIVHNDGNTYFEWYQQKPGKAPKLLIYKVSNRFSGVPSRFSGSGSGTHFTLTISSLQPEDFATYYCFQGSYVPLTFGCGTKVEIKASTGSGGGGSDIQMTQSPSSLSASVGDRVTITCRSSQSIVHNDGNTYFEWYQQKPGKAPKLLIYKVSNRFSGVPSRFSGSGSGTHFTLTISSLQPEDFATYYCFQGSYVPLTFGQGTKVEIKRTVAAPSVFIFPPSDEQLKSGTASVVCLLNNFYPREAKVQWKVDNALQSGNSQESVTEQDSKDSTYSLSSTLTLSKADYEKHKVYACEVTHQGLSSPVTKSFNRGEC heavy: not shown
1.5 | 2.75 | 6400 | 4670 | 3410 | 5940 | h15A7H (antibody, IgG4, V domains shown, Bivalent humanized IgG4 kappa antibody with the S228P hinge mutation; also called humanized 15A7H; wild type h15A7H; not shown: human immunoglobulin kappa light chain constant region) VH: EVQLVESGGGLVQPGGSLRLSCAASGFTFSSFGMHWVRQAPGKGLEWVAYINGGSSTIFYANAVKGRFTISRDNAKNTLYLQMNSLRAEDTAVYYCARYASYGGGAMDYWGQGTLVTVSS VL: DIQMTQSPSSLSASVGDRVTITCRSSQSIVHNDGNTYFEWYQQKPGKAPKLLIYKVSNRFSGVPSRFSGSGSGTHFTLTISSLQPEDFATYYCFQGSYVPLTFGQGTKVEIK
1.75 | 35.8 | 6010 | 5940 | 2640 | 4640 | h15A7H scFv4-crIgG4p (antibody, Tetravalent: four v2 scFv units fused without a linker to the N-termini of the kappa and IgG4p constant regions) light: EVQLVESGGGLVQPGGSLRLSCAASGFTFSSFGMHWVRQAPGKCLEWVAYINGGSSTIFYANAVKGRFTISRDNAKNTLYLQMNSLRAEDTAVYYCARYASYGGGAMDYWGQGTLVTVSSGGGGSGGGGSGGGGSGGGGSGGGGSDIQMTQSPSSLSASVGDRVTITCRSSQSIVHNDGNTYFEWYQQKPGKAPKLLIYKVSNRFSGVPSRFSGSGSGTHFTLTISSLQPEDFATYYCFQGSYVPLTFGCGTKVEIKRTVAAPSVFIFPPSDEQLKSGTASVVCLLNNFYPREAKVQWKVDNALQSGNSQESVTEQDSKDSTYSLSSTLTLSKADYEKHKVYACEVTHQGLSSPVTKSFNRGEC heavy: not shown
0.5 | 18 | 5820 | 6030 | 3040 | 3480 | h15A7H LC-scFv2-IgG4p (antibody, Tetravalent: a v2 scFv fused to the C-terminus of each kappa light chain of h15A7H IgG4p) light: DIQMTQSPSSLSASVGDRVTITCRSSQSIVHNDGNTYFEWYQQKPGKAPKLLIYKVSNRFSGVPSRFSGSGSGTHFTLTISSLQPEDFATYYCFQGSYVPLTFGQGTKVEIKRTVAAPSVFIFPPSDEQLKSGTASVVCLLNNFYPREAKVQWKVDNALQSGNSQESVTEQDSKDSTYSLSSTLTLSKADYEKHKVYACEVTHQGLSSPVTKSFNRGECGGGGSGGGGSEVQLVESGGGLVQPGGSLRLSCAASGFTFSSFGMHWVRQAPGKCLEWVAYINGGSSTIFYANAVKGRFTISRDNAKNTLYLQMNSLRAEDTAVYYCARYASYGGGAMDYWGQGTLVTVSSGGGGSGGGGSGGGGSGGGGSGGGGSDIQMTQSPSSLSASVGDRVTITCRSSQSIVHNDGNTYFEWYQQKPGKAPKLLIYKVSNRFSGVPSRFSGSGSGTHFTLTISSLQPEDFATYYCFQGSYVPLTFGCGTKVEIKAAAHHHHHHHHHH heavy: not shown
